In article PMC10397247:
One block for each binder: values may come before it.

What was measured:
4H2447-AA = target: T1, 4H2447-AA; experiment: two-hybrid library CCmax;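 further: natural log of median RNA to DNA barcode read ratio; higher means stronger binding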
T1 chain: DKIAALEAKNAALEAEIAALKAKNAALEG

4H2458-AA = target: T2, 4H2458-AA; experiment: two-hybrid library CCmax; conditions: mean of both orientations;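 further: natural log of median RNA to DNA barcode read ratio; higher means stronger binding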
T2 chain: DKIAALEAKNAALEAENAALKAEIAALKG

4H3330-AA = target: T3, 4H3330-AA; experiment: two-hybrid library CCmax; conditions: mean of both orientations;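 further: natural log of median RNA to DNA barcode read ratio; higher means stronger binding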
T3 chain: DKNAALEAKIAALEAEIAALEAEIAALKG

4H716-AA = target: T4, 4H716-AA; experiment: two-hybrid library CCmax; conditions: mean of both orientations;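 further: natural log of median RNA to DNA barcode read ratio; higher means stronger binding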
T4 chain: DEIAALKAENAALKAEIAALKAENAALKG

4H733-AA = target: T5, 4H733-AA; experiment: two-hybrid library CCmax; conditions: mean of both orientations
T5 chain: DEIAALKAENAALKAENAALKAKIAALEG

4H807-AA = target: T6, 4H807-AA; experiment: two-hybrid library CCmax; conditions: mean of both orientations
T6 chain: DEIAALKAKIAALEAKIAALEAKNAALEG

APC1015-AA = target: T7, APC1015-AA; experiment: two-hybrid library CCmax; conditions: mean of both orientations
T7 chain: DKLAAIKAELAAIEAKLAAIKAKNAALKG

APC1434-AA = target: T8, APC1434-AA; experiment: two-hybrid library CCmax; conditions: mean of both orientations
T8 chain: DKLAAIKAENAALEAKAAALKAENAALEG

APC2237-AA = target: T9, APC2237-AA; experiment: two-hybrid library CCmax; conditions: mean of both orientations
T9 chain: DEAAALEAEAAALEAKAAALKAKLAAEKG

APC232-AA = target: T10, APC232-AA; experiment: two-hybrid library CCmax; conditions: mean of both orientations
T10 chain: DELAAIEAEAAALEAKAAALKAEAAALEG

APC2405-AA = target: T11, APC2405-AA; experiment: two-hybrid library CCmax; conditions: mean of both orientations
T11 chain: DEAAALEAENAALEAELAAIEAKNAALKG

APC3645-AA = target: T12, APC3645-AA; experiment: two-hybrid library CCmax; conditions: mean of both orientations
T12 chain: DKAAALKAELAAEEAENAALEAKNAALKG

APC4011-AA = target: T13, APC4011-AA; experiment: two-hybrid library CCmax; conditions: mean of both orientations
T13 chain: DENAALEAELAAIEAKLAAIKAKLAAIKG

APC4264-AA = target: T14, APC4264-AA; experiment: two-hybrid library CCmax; conditions: mean of both orientations
T14 chain: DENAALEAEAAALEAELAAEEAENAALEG

APC4436-AA = target: T15, APC4436-AA; experiment: two-hybrid library CCmax; conditions: mean of both orientations
T15 chain: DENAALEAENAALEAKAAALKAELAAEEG

APC5383-AA = target: T16, APC5383-AA; experiment: two-hybrid library CCmax; conditions: mean of both orientations
T16 chain: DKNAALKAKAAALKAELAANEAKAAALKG

APC6108-AA = target: T17, APC6108-AA; experiment: two-hybrid library CCmax; conditions: mean of both orientations
T17 chain: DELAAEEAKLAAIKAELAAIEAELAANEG

APC7099-AA = target: T18, APC7099-AA; experiment: two-hybrid library CCmax; conditions: mean of both orientations
T18 chain: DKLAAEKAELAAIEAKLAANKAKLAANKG

APC8191-AA = target: T19, APC8191-AA; experiment: two-hybrid library CCmax; conditions: mean of both orientations
T19 chain: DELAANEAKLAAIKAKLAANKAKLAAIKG

APC8910-AA = target: T20, APC8910-AA; experiment: two-hybrid library CCmax; conditions: mean of both orientations
T20 chain: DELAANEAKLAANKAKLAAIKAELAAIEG

APC9096-AA = target: T21, APC9096-AA; experiment: two-hybrid library CCmax; conditions: mean of both orientations
T21 chain: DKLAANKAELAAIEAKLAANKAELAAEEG

APC9319-AA = target: T22, APC9319-AA; experiment: two-hybrid library CCmax; conditions: mean of both orientations
T22 chain: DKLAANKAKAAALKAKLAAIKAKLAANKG

4H2859-bN = target: T23, 4H2859-bN; experiment: two-hybrid library CCNG1
T23 chain: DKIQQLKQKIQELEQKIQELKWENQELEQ

4H2931-bN = target: T24, 4H2931-bN; experiment: two-hybrid library CCNG1
T24 chain: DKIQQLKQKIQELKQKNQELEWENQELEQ

4H3041-bN = target: T25, 4H3041-bN; experiment: two-hybrid library CCNG1
T25 chain: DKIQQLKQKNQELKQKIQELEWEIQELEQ

4H3297-bN = target: T26, 4H3297-bN; experiment: two-hybrid library CCNG1
T26 chain: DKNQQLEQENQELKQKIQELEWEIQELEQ

4H3364-bN = target: T27, 4H3364-bN; experiment: two-hybrid library CCNG1
T27 chain: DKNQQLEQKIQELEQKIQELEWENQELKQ

4H3381-bN = target: T28, 4H3381-bN; experiment: two-hybrid library CCNG1
T28 chain: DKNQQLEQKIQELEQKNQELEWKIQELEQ

4H349-bN = target: T29, 4H349-bN; experiment: two-hybrid library CCNG1
T29 chain: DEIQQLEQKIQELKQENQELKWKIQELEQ

4H56-bN = target: T30, 4H56-bN; experiment: two-hybrid library CCNG1
T30 chain: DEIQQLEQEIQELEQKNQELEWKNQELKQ

4H730-bN = target: T31, 4H730-bN; experiment: two-hybrid library CCNG1
T31 chain: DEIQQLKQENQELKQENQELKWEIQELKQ

4H796-bN = target: T32, 4H796-bN; experiment: two-hybrid library CCNG1
T32 chain: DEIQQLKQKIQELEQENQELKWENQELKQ

4H932-bN = target: T33, 4H932-bN; experiment: two-hybrid library CCNG1
T33 chain: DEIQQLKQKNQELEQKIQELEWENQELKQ

4H949-bN = target: T34, 4H949-bN; experiment: two-hybrid library CCNG1
T34 chain: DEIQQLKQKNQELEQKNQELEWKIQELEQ

O11-bH = target: T35, O11-bH; experiment: two-hybrid library CCNG1
T35 chain: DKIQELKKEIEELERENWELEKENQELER

interaction score (4H2447-AA): 1.72
interaction score (4H2458-AA): -1.42
interaction score (4H3330-AA): -0.798
interaction score (4H716-AA): -1.36
interaction score (4H733-AA): -1.83
interaction score (4H807-AA): -1.69
interaction score (APC1015-AA): -2.05
interaction score (APC1434-AA): -1.56
interaction score (APC2237-AA): -1.38
interaction score (APC232-AA): -1.82
interaction score (APC2405-AA): -1.12
interaction score (APC3645-AA): -1.7
interaction score (APC4011-AA): -0.716
interaction score (APC4264-AA): -1.6
interaction score (APC4436-AA): -1.79
interaction score (APC5383-AA): -1.8
interaction score (APC6108-AA): -1.28
interaction score (APC7099-AA): -1.5
interaction score (APC8191-AA): -1.38
interaction score (APC8910-AA): -1.68
interaction score (APC9096-AA): -1.78
interaction score (APC9319-AA): -1.75
Binder: DKIAALEAKNAALEAEIAALKAKNAALEG [4H2447-AA]

interaction score (4H2859-bN): 0.927
interaction score (4H2931-bN): -0.613
interaction score (4H3041-bN): 0.995
interaction score (4H3297-bN): 0.359
interaction score (4H3364-bN): -0.713
interaction score (4H3381-bN): -1.35
interaction score (4H349-bN): -1.06
interaction score (4H56-bN): 0.857
interaction score (4H730-bN): -1.23
interaction score (4H796-bN): -1.23
interaction score (4H932-bN): -1.18
interaction score (4H949-bN): -2.31
interaction score (O11-bH): 0.17
Binder: DKIQQLKQKIQELEQKIQELKWENQELEQ [4H2859-bN]
